The target in experiment [1] is Herceptin scFv antibody (His-tagged, self-prepared). The experiment is described as follows: peptide magnetic bead immunoprecipitation, SDS-PAGE / anti-His blot, band intensity semi-quantified.
Experiment [2] shares this target. The experiment is described as follows: peptide magnetic bead immunoprecipitation, SDS-PAGE / anti-His blot, semi-quantitative.

Where no end group is shown, it is not given here.

B1: code 166 peptide (peptide)
peptide: FHRSHWYQTWVP
modifications: also: biotinylated (site not given here)
In experiment [1], B1 displayed a Herceptin scFv antibody recovery rate of 30%.

B2: code 4 peptide (peptide)
peptide: WSEYDIPTPQIP
modifications: also: biotinylated (site not given here)
Consider B2, for which the Herceptin scFv antibody recovery rate in experiment [1] was found to be 30%; in experiment [2], 23%.

(Values after patent WO2013125221A1.)
